Reference: patent US6958236B2, “Control of gene expression in plants” (priority 2000, dated 2005)

B1: G(E)MV: EcR chimera: GAL4 DBD, European corn borer D domain, Manduca sexta E domain, VP16; SEQ ID NO:126-127 (protein)
chain: MQQLYVDFFSPAFIRYLFAWYCFFCRCSPCCLVLLLQGSATMKLLSSIEQACDICRLKKLKCSKEKPKCAKCLKNNWECRYSPKTKRSPLTRAHLTEVESRLERLEQLFLLIFPREDLDMILKMDSLQDIKALLTGLFVQDNVNKDAVTDRLASVETDMPLTLRQHRISATSSSEESSNKGQRQLTVSTRMRPECVVPETQCAQKRKEKKAQREKDKLPVSTTTVDDHMPPIMQCDPPPPEAARILECLQHEVVPRFLSEKLMEQNRLKNIPPLTANQQFLIARLVWYQEGYEQPSEEDLKRVTQTWQLEEEEEEETDMPFRQITEMTILTVQLIVEFAKGLPGFSKISQSDQITLLKASSSEVMMLRVARRYDAATDSVLFANNQAYTRDNYRKAGMSYVIEDLLHFCRCMYSMSMDNVHYALLTAIVIFSDRPGLEQPLLVEEIQRYYLKTLRVYILNQHSASPRCAVLFGKILGVLTELRTLGTQNSNMCISLKLKNRKLPPFLEEIWDVAEVSTTKLAPPTDVSLGDELHLDGEDVAMAHADALDDFDLDMLGDGDSPGPGFTPHDSAPYGALDMADFEFEQMFTDALGIDEYGG
B2: G(M)MC: EcR chimera: GAL4 DBD, Manduca sexta D and E domains, maize C1 activation domain; SEQ ID NO:134-135 (protein)
chain: MQQLYVDFFSPAFIRYLFAWYCFFCRCSPCCLVLLLQGSATMKLLSSIEQACDICRLKKLKCSKEKPKCAKCLKNNWECRYSPKTKRSPLTRAHLTEVESRLERLEQLFLLIFPREDLDMILKMDSLQDIKALLTGLFVQDNVNKDAVTDRLASVETDMPLTLRQHRISATSSSEESSNKGQRQLTVSTRMRPECVVPESTCKNKRREKEAQREKDKLPVSTTTVDDHMPAIMQCDPPPPEAARIHEVVPRFLTEKLMEQNRLKNVTPLSANQKSLIARLVWYQEGYEQPSEEDLKRVTQTWQLEEEEEEETDMPFRQITEMTILTVQLIVEFAKGLPGFSKISQSDQITLLKASSSEVMMLRVARRYDAATDSVLFANNQAYTRDNYRKAGMSYVIEDLLHFCRCMYSMSMDNVHYALLTAIVIFSDRPGLEQPLLVEEIQRYYLKTLRVYILNQHSASPRCAVLFGKILGVLTELRTLGTQNSNMCISLKLKNRKLPPFLEEIWDVAEVSTTKLPKAVRCTGGLFFFHRDTTPAHAGETATPMAGGGGGGGGEAGSSDDCSSAASVSLRVGSHDEPCFSGDGDGDWMDDVRALASFLESDEDWLRCQTAGQLA
B3: VG(M)M: EcR chimera: N-terminal VP16, GAL4 DBD, Manduca D and E domains; SEQ ID NO:142-143 (protein)
chain: MQQLYVDFFSPAFIRYLFAWYCFFCRCSPCCLVLLLQGSATMHVKLAPPTDVSLGDELHLDGEDVAMAHADALDDFDLDMLGDGDSPGPGFTPHDSAPYGALDMADFEFEQMFTDALGIDEYGGHVTSKLLSSIEQACDICRLKKLKCSKEKPKCAKCLKNNWECRYSPKTKRSPLTRAHLTEVESRLERLEQLFLLIFPREDLDMILKMDSLQDIKALLTGLFVQDNVNKDAVTDRLASVETDMPLTLRQHRISATSSSEESSNKGQRQLTVSTRMRPECVVPESTCKNKRREKEAQREKDKLPVSTTTVDDHMPAIMQCDPPPPEAARIHEVVPRFLTEKLMEQNRLKNVTPLSANQKSLIARLVWYQEGYEQPSEEDLKRVTQTWQLEEEEEEETDMPFRQITEMTILTVQLIVEFAKGLPGFSKISQSDQITLLKASSSEVMMLRVARRYDAATDSVLFANNQAYTRDNYRKAGMSYVIEDLLHFCRCMYSMSMDNVHYALLTAIVIFSDRPGLEQPLLVEEIQRYYLKTLRVYILNQHSASPRCAVLFGKILGVLTELRTLGTQNSNMCISLKLKNRKLPPFLEEIWDVAEVSTTKL
B4: GV(M)M: EcR chimera: GAL4 DBD, internal VP16, Manduca D and E domains; SEQ ID NO:147-148 (protein)
chain: MQQLYVDFFSPAFIRYLFAWYCFFCRCSPCCLVLLLQGSATMKLLSSIEQACDICRLKKLKCSKEKPKCAKCLKNNWECRYSPKTKRSPLTRAHLTEVESRLERLEQLFLLIFPREDLDMILKMDSLQDIKALLTGLFVQDNVNKDAVTDRLASVETDMPLTLRQHRISATSSSEESSNKGQRQLTVSTRMRPECVVPESTCKLAPPTDVSLGDELHLDGEDVAMAHADALDDFDLDMLGDGDSPGPGFTPHDSAPYGALDMADFEFEQMFTDALGIDEYGGNTCKNKRREKEAQREKDKLPVSTTTVDDHMPAIMQCDPPPPEAARIHEVVPRFLTEKLMEQNRLKNVTPLSANQKSLIARLVWYQEGYEQPSEEDLKRVTQTWQLEEEEEEETDMPFRQITEMTILTVQLIVEFAKGLPGFSKISQSDQITLLKASSSEVMMLRVARRYDAATDSVLFANNQAYTRDNYRKAGMSYVIEDLLHFCRCMYSMSMDNVHYALLTAIVIFSDRPGLEQPLLVEEIQRYYLKTLRVYILNQHSASPRCAVLFGKILGVLTELRTLGTQNSNMCISLKLKNRKLPPFLEEIWDVAEVSTTKL
B5: G(M)MD: EcR chimera: GAL4 DBD, Manduca sexta D and E domains, maize Dof1 activation domain; SEQ ID NO:136-137 (protein)
chain: MQQLYVDFFSPAFIRYLFAWYCFFCRCSPCCLVLLLQGSATMKLLSSIEQACDICRLKKLKCSKEKPKCAKCLKNNWECRYSPKTKRSPLTRAHLTEVESRLERLEQLFLLIFPREDLDMILKMDSLQDIKALLTGLFVQDNVNKDAVTDRLASVETDMPLTLRQHRISATSSSEESSNKGQRQLTVSTRMRPECVVPESTCKNKRREKEAQREKDKLPVSTTTVDDHMPAIMQCDPPPPEAARIHEVVPRFLTEKLMEQNRLKNVTPLSANQKSLIARLVWYQEGYEQPSEEDLKRVTQTWQLEEEEEEETDMPFRQITEMTILTVQLIVEFAKGLPGFSKISQSDQITLLKASSSEVMMLRVARRYDAATDSVLFANNQAYTRDNYRKAGMSYVIEDLLHFCRCMYSMSMDNVHYALLTAIVIFSDRPGLEQPLLVEEIQRYYLKTLRVYILNQHSASPRCAVLFGKILGVLTELRTLGTQNSNMCISLKLKNRKLPPFLEEIWDVAEVSTTKLELATAADPGKTATTTTTTTSEITTETGALEDSDSLAHLLLQPGTEDAEAVALGLGLSDFPSAGKAVLDDEDSFVWPAASFDMGACWAGAGFADPDPACIFLNLP

Tested on: pCGS206 (luciferase reporter with response elements for the GAL4 DNA binding domain)
Assay: Maize BMS cells bombarded with GAL4 luciferase reporter and receptor vector, GUS-normalized luciferase
Format: cell-based
Conditions: for Fold Induction with Teb Relative to Receptor with EtOH / Fold Induction with Teb Relative to Reporter with EtOH: 20 μM Teb; for Normalized Average (EtOH): unliganded background; for Experiment #1 Luciferase / Experiment #2 Luciferase / Experiment #1 Fold Induction / Experiment #2 Fold Induction: Example 26; for Experiment #1 Fold Induction / Experiment #2 Fold Induction: + 10 μM Teb vs without; for Experiment #1 RLU / Experiment #2 RLU: Example 28, GUS-normalized
Procedure: Maize BMS (Black Mexican Sweet) cultured cells are transfected with pCGS206 and pCGS208 by high velocity microprojectile bombardment. In addition, an expression plasmid containing the maize ubiquitin promoter driving the expression of β-glucuronidase (GUS) is added to the transfection to serve as an internal control to normalize against variations among the samples.
Transfections are treated and cell lysates are made essentially as described in U.S. Pat. No. 5,880,333. […] Both luciferase and GUS assays are performed with 20 μl of cell lysate for each assay using the Promega Luciferase Kit (Promega cat #E1500) and GUS-Light Kit (Tropix) respectively. Relative light units are determined using a Turner Designs TD 20/20 luminometer.
In addition to tebufenozide, methoxytebufenozide (“MethoxyTeb”) is also capable of inducing gene expression in maize BMS cells. Both pCGS206 and pCGS208 are transfected as described above and methoxytebufenozide is added in place of tebufenozide at 25 μM and 10 μM.
Maize BMS cells are transfected and assayed as in Example 12.
Transformation of maize suspension cells, chemical treatment, and reporter activity assays are performed as described in Example 12. Maize BMS (Black Mexican Sweet) cultured cells are transfected with pCGS206 (pBS-bz1TATA/intronLUC), pCGS203 (G(M)MV), pCGS672 (G(M)MC), and pCGS678 (G(M)MD) by high velocity microprojectile bombardment. In addition, an expression plasmid containing the maize ubiquitin promoter driving the expression of β-glucuronidase (GUS) is added to the transfection to serve as an internal control to normalize against variations among the samples.
Maize BMS cells are bombarded with reporter vector pCGS206 and chimeric receptors and treated with tebufenozide essentially as described in Example 12. Transfections are treated and cell lysates are made essentially as described in U.S. Pat. No. 5,880,333. […] Both luciferase and GUS assays are performed with 20 μl of cell lysate for each assay using the Promega Luciferase Kit (Promega cat #E1500) and GUS-Light Kit (Tropix) respectively. Relative light units (RLU) are determined using a Turner Designs TD 20/20 luminometer.

[1] = BMS cells, reporter pCGS206, no ligand

| Molecule | Experiment #1 Luciferase (+ 10 μM Teb) | Experiment #2 Luciferase (+ 10 μM Teb) | Experiment #1 Fold Induction | Experiment #2 Fold Induction | Experiment #1 Luciferase [1] | Experiment #2 Luciferase [1] | Experiment #1 RLU [1] | Experiment #2 RLU [1] | other results |
| --- | --- | --- | --- | --- | --- | --- | --- | --- | --- |
| B1 | – | – | – | – | – | – | – | – | Fold Induction with Teb Relative to Receptor with EtOH (Example 24, Experiment 1): 34 fold; Fold Induction with Teb Relative to Reporter with EtOH (Example 24, Experiment 1): 135 fold; Normalized Average (EtOH) (Example 24, Experiment 1, BMS cells): 14.499; Fold Induction with Teb Relative to Receptor with EtOH (Example 24, Experiment 2): 16 fold; Fold Induction with Teb Relative to Reporter with EtOH (Example 24, Experiment 2): 95 fold; Normalized Average (EtOH) (Example 24, Experiment 2, BMS cells): 2.537 |
| B2 | 53.20 | 28.05 | 26.0 fold | 17.8 fold | 2.05 | 1.58 | – | – | – |
| B3 | – | – | – | – | – | – | 2.21 RLU | 2.52 RLU | – |
| B4 | – | – | – | – | – | – | 1.71 RLU | 1.77 RLU | – |
| B5 | 6.37 | 9.14 | 3.0 fold | 7.8 fold | 2.14 | 1.18 | – | – | – |
